Here are results for 3 substances from patent US20180264110A1.

Assay [1] concerns the target BTLA overexpressed on 293T cells (human) (UniProt Q7Z6A9). Briefly: FACS, 293T cells overexpressing BTLA; secondary antibody alone (background control).
Assay [2] shares this target. Briefly: FACS, 293T cells overexpressing BTLA.

BTLA overexpressed on 293T cells (human), sequence (Q7Z6A9 31-289 limits assumed): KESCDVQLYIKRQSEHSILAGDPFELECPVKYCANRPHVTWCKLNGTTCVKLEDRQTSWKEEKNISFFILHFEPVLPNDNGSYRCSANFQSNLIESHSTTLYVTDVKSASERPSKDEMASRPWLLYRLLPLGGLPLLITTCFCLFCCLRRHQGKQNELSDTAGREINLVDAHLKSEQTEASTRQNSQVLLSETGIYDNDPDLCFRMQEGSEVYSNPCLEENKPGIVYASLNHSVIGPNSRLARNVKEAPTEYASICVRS

With 2′Ab only (antibody), in assay [1], the % Gate stood at 10.1% and the MR was 16.6.

Take BTLA (MIH26) (antibody): in assay [2], the % Gate is 91.3% and the MR is 2850.

As to Isotype (antibody), in assay [2], the % Gate is 5.08% and the MR is 11.7.
